Laboratory results from patent US20200062844A1 (Regeneron, published 2020).
Residue numbers refer to the chain shown, from its start.

T1: human FcεR1α expressed on cells (human, UniProt P12319 26-257)
T1 sequence (looked up): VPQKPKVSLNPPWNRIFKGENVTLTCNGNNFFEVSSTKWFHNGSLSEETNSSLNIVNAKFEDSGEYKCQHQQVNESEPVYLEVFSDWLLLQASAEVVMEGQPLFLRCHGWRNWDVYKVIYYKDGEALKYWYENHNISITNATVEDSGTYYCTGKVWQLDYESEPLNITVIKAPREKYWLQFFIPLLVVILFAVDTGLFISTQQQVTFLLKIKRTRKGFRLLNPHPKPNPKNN

T2: hFcεR1α.MMH (human)
T2 construct: also called ectodomain of human FcεR1α with C-term myc-myc-6×His tag
T2 chain: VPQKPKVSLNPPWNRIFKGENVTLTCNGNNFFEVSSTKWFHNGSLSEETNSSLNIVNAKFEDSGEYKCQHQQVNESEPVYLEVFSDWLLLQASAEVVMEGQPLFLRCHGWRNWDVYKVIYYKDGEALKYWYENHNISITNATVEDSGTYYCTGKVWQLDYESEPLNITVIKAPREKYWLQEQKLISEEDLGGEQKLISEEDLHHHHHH

T3: mfFcεR1α.MMH (cynomolgus (Macaca fascicularis))
T3 construct: also called mfFceR1a.MMH; ectodomain of cynomolgus FcεR1α with C-term myc-myc-6×His tag
T3 chain: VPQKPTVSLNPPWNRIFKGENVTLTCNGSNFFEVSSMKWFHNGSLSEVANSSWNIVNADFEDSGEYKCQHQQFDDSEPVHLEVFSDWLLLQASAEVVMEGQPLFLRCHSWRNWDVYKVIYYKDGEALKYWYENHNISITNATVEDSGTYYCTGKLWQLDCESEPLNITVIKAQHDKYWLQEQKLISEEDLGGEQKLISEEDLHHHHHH

B1: bsAb24919D (bispecific antibody, human IgG4 S228P, kappa)
heavy 1: QVQLQESGPGLVKPSETLSLTCTVSGDSISDYYWIWIRQPPGKGLEWIGYIYYSGSTNYNPSLKSRVTISVATSKNQFSLKLRSVTAADTAMYYCARRNNWNHVRAFDIWGQGTMVTVSSASTKGPSVFPLAPCSRSTSESTAALGCLVKDYFPEPVTVSWNSGALTSGVHTFPAVLQSSGLYSLSSVVTVPSSSLGTKTYTCNVDHKPSNTKVDKRVESKYGPPCPPCPAPPVAGPSVFLFPPKPKDTLMISRTPEVTCVVVDVSQEDPEVQFNWYVDGVEVHNAKTKPREEQFNSTYRVVSVLTVLHQDWLNGKEYKCKVSNKGLPSSIEKTISKAKGQPREPQVYTLPPSQEEMTKNQVSLTCLVKGFYPSDIAVEWESNGQPENNYKTTPPVLDSDGSFFLYSRLTVDKSRWQEGNVFSCSVMHEALHNHYTQKSLSLSLGK
heavy 2: EVQLVESGGGLVQPGRSLRLSCAASGFTFDDYSMHWVRQAPGKGLEWVSGISWNSGSIGYADSVKGRFTISRDNAKNSLYLQMNSLRAEDTALYYCAKYGSGYGKFYYYGMDVWGQGTTVTVSSASTKGPSVFPLAPCSRSTSESTAALGCLVKDYFPEPVTVSWNSGALTSGVHTFPAVLQSSGLYSLSSVVTVPSSSLGTKTYTCNVDHKPSNTKVDKRVESKYGPPCPPCPAPPVAGPSVFLFPPKPKDTLMISRTPEVTCVVVDVSQEDPEVQFNWYVDGVEVHNAKTKPREEQFNSTYRVVSVLTVLHQDWLNGKEYKCKVSNKGLPSSIEKTISKAKGQPREPQVYTLPPSQEEMTKNQVSLTCLVKGFYPSDIAVEWESNGQPENNYKTTPPVLDSDGSFFLYSRLTVDKSRWQEGNVFSCSVMHEALHNRFTQKSLSLSPGK
light: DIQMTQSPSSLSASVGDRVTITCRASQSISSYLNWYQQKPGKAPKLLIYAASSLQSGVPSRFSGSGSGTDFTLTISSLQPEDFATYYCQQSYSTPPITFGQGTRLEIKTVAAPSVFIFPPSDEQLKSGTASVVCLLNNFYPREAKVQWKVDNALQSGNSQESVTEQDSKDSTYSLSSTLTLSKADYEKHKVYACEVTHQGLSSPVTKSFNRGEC
notes: IgG4 Fc domain; two distinct heavy chains with a common light chain; also called anti-FcεR1α×CD3 bispecific antibody; FcεR1α × hCD3
B2: bsAb24920D (bispecific antibody, human IgG4 S228P, kappa)
heavy 1: B1 heavy 1 with S30N, I35S, I37L, A72D, R83S, M92V, A96T, H103Y
heavy 2: B1 heavy 2
light: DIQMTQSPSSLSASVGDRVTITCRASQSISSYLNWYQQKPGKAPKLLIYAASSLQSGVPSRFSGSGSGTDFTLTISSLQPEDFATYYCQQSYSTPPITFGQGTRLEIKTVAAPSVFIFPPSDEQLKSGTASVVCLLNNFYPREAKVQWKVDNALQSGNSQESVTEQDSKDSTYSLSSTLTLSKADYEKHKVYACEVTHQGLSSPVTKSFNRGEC
notes: as for B1

Legend:
[1] = molecular target: T4, human CD3 expressed in Jurkat cells (human, UniProt P07766 23-207; P04234 22-171; P20963 22-164; P09693 23-182); experiment: cell-based or functional assay
[2] = molecular target: T1, human FcεR1α expressed on cells; experiment: cell-based or functional assay
[3] = molecular target: T1, human FcεR1α expressed on cells; experiment: cell-based or functional assay; remark: listed apart in the source
[4] = molecular target: T4, human CD3 expressed in Jurkat cells; experiment: flow cytometry, 70 nM antibody on Jurkat/NFAT-luc cells, No IgE
Procedure: (§1) For flow cytometry analysis, HEK293, HEK293/hFcεR1α/hFcεR1β/hFcεR1γ and HEK293/mf FcεR1α/hFcεR1β/hFcεR1γ cells were collected after dissociation using Enzyme Free Dissociation Buffer (Millipore Cat# S-004), and the cells were pre-incubated with or without 70 nM human IgE, for 30 minutes on ice in FACS buffer (PBS, without Ca⁺⁺ and Mg⁺⁺, (Irvine Scientific, Cat#9240) containing 2% FBS). Jurkat/NFAT-luc cells were also collected. The antibodies at the concentration of 70 nM were then added to 1×10⁶ cells/well of each cell type at 4° C. for 30 minutes. […] Cells were fixed using BD CytoFix™ (Becton Dickinson, Cat. #554655) and analyzed on Accuri™ C6 (BD) or CytoFLEX Flow cytometer (Beckman Coulter). Unstained and secondary antibody alone controls were also tested for all cell lines and a sample was evaluated for viability using the Far Red Fluo viability dye (Thermo Fisher, Cat#L10120) according to the manufacturer's protocol. The results were analyzed using FlowJo software (version 10.0.8, FlowJo) to determine the geometric means of fluorescence for viable cells and the binding ratio was calculated with the mean fluorescence intensity (MFI) of the experimental condition normalized by the MFI of the unstained respective cells.

[5] = molecular target: T1, human FcεR1α expressed on cells; experiment: flow cytometry, 70 nM antibody on HEK293/hFcεR1α/hFcεR1β/hFcεR1γ cells, No IgE
Procedure: as §1

[6] = molecular target: T5, monkey (cynomolgus) FcεR1α expressed on cells (cynomolgus); experiment: flow cytometry, 70 nM antibody on HEK293/mfFcεR1α/hFcεR1β/hFcεR1γ cells, No IgE
T5 construct: range 4-260; On HEK293 cells, co-expressed with human FcεR1β and FcεR1γ; also called mfFcεR1α; HEK293/mfFcεR1α/hFcεR1β/hFcεR1γ cells
Procedure: as §1

hFcεR1α.MMH [7] = molecular target: T2, hFcεR1α.MMH; experiment: SPR (Biacore 8k), antibody captured on anti-human Fc, hFcεR1α.MMH injected, 25°C
Procedure: (§2) Equilibrium dissociation constants (KD) for human or cynomolgus FcεR1α ectodomain binding to purified anti-FcεR1α monoclonal antibodies (mAbs) and CD3×FcεR1α bispecific antibodies (bsAbs) were determined using a real-time surface plasmon resonance biosensor (SPR-Biacore), Biacore 8k. All binding studies were performed in 10 mM HEPES, 150 mM NaCl, 3 mM EDTA, and 0.05% v/v surfactant Tween-20, pH 7.4 (HBS-ET) running buffer at 25° C. and 37° C.
(§3) The Biacore CM4 sensor surface was first derivatized by amine coupling with a monoclonal mouse anti-human Fc antibody to capture approximately 500-900 RUs anti-FcεR1α monoclonal antibodies or anti-CD3×FcεR1α bispecific monoclonal antibodies. 1 RU (response unit) represents 1 pg of protein per mm², as defined by the manufacturer. The ectodomain of human and cynomolgus FcεR1α reagents were expressed with a C-term myc-myc-6×His tag-hFcεR1α.MMH (SEQ ID NO: 57) and mfFcεR1α.MMH (SEQ ID NO: 58). Different concentrations of FcεR1α reagents were prepared in HBS-ET running buffer (600 nM-7.4 nM; serially diluted by 3-fold) and injected over anti-human Fc captured anti-FcεR1α monoclonal antibodies or anti-CD3×FcεR1α bispecific monoclonal antibodies surfaces for 1 minute at a flow rate of 30 μL/minute. The dissociation of bound FcεR1α reagents was monitored for 4 minutes in HBS-ET running buffer. Association (kₐ) and dissociation (kd) rate constants were determined by fitting the real-time binding sensorgrams to a 1:1 binding model with mass transport limitation using Biacore 8k evaluation software. Binding dissociation equilibrium constants (KD) and dissociative half-lives (t½) were calculated from the kinetic rate constants as: […]

hFcεR1α.MMH [8] = molecular target: T2, hFcεR1α.MMH; experiment: SPR (Biacore 8k), antibody captured on anti-human Fc, hFcεR1α.MMH injected, 37°C
Procedure: as §2, §3

mfFcεR1α.MMH [9] = molecular target: T3, mfFcεR1α.MMH; experiment: SPR (Biacore 8k), antibody captured on anti-human Fc, mfFcεR1α.MMH injected, 25°C
Procedure: as §2, §3

mfFcεR1α.MMH [10] = molecular target: T3, mfFcεR1α.MMH; experiment: SPR (Biacore 8k), antibody captured on anti-human Fc, mfFcεR1α.MMH injected, 37°C
Procedure: as §2, §3

[11] = molecular target: T1, human FcεR1α expressed on cells; experiment: flow cytometry, 70 nM antibody on HEK293/hFcεR1α/hFcεR1β/hFcεR1γ cells pre-incubated with 70 nM human IgE
Procedure: as §1

[12] = molecular target: T5, monkey (cynomolgus) FcεR1α expressed on …; experiment: flow cytometry, 70 nM antibody on HEK293/mfFcεR1α/hFcεR1β/hFcεR1γ cells pre-incubated with 70 nM human IgE
Procedure: as §1

T4 sequence (P07766 23-207 limits assumed, chain 1 of 4): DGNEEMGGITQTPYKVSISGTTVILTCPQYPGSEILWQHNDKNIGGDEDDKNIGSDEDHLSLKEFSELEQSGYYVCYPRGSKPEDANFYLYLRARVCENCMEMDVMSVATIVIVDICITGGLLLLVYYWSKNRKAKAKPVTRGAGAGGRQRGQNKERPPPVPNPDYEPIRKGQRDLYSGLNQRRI
T4 sequence (P04234 22-171 limits assumed, chain 2 of 4): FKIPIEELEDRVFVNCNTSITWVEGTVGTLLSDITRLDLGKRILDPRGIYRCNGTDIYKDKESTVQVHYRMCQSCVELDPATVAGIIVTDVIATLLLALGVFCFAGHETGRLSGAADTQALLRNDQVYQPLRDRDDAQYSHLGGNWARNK
T4 sequence (P20963 22-164 limits assumed, chain 3 of 4): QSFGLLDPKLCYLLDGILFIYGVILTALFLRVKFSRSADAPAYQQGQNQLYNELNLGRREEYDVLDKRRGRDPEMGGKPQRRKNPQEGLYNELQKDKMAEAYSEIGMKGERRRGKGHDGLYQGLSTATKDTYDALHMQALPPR
T4 sequence (P09693 23-182 limits assumed, chain 4 of 4): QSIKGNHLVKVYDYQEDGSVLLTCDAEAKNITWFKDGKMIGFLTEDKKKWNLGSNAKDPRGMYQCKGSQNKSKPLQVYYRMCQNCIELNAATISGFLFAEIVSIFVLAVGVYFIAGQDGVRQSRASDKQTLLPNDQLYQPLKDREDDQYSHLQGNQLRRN

Binder	EC50 [M], NFAT-luciferase in Jurkat/NFAT-luc with HEK293/hFcεR1α/hFcεR1β/hFcεR1γ cells, 10 nM IgE [1] [M]	EC50 [M], NFAT-luciferase in Jurkat/NFAT-luc with HEK293/hFcεR1α/hFcεR1β/hFcεR1γ cells, No IgE [1] [M]	Fold Activation, Jurkat/NFAT-luc with HEK293/hFcεR1α/hFcεR1β/hFcεR1γ cells, 10 nM IgE [1] [fold]	Fold Activation, Jurkat/NFAT-luc with HEK293/hFcεR1α/hFcεR1β/hFcεR1γ cells, No IgE [1] [fold]	EC80, cleaved caspase 3+ cleaved PARP+ HEK293/hFcεR1α/hFcεR1β/hFcεR1γ target cells with activated CD8+ T cells [2] [nM]	Maximum percent apoptotic cells, HEK293/hFcεR1α/hFcεR1β/hFcεR1γ target cells with activated CD8+ T cells [2] [%]	EC50, decrease of primary human basophils within PBMC with activated CD8+ T cells [3] [nM]	Maximum percent basophil decrease, PBMC with activated CD8+ T cells [3] [%]	Binding Ratio (MFI of Treated/MFI of Unstained) [4]	Binding Ratio (MFI of Treated/MFI of Unstained) [5]	Binding Ratio (MFI of Treated/MFI of Unstained) [6]	600 nM hFcεR1α.MMH Bound (RU) (hFcεR1α.MMH [7])	Kd (hFcεR1α.MMH [7]) [nM]	koff (hFcεR1α.MMH [7]) [s⁻¹]	kon (hFcεR1α.MMH [7]) [M⁻¹ s⁻¹]	t½ (hFcεR1α.MMH [7]) [s]	600 nM hFcεR1α.MMH Bound (RU) (hFcεR1α.MMH [8])	Kd (hFcεR1α.MMH [8]) [nM]	koff (hFcεR1α.MMH [8]) [s⁻¹]	kon (hFcεR1α.MMH [8]) [M⁻¹ s⁻¹]	further results
B1	1.5e-09	3.4e-10	32	32	0.0346	56	3.75	90.6	48	269	166	72	152	0.0104	68200	66	43	801	0.0588	73500	t½ (hFcεR1α.MMH [8]): 12 s; 600 nM mfFceR1a.MMH Bound (RU) (mfFcεR1α.MMH [9]): 40 RU; Kd (mfFcεR1α.MMH [9]): 363 nM; koff (mfFcεR1α.MMH [9]): 0.0144 s⁻¹; kon (mfFcεR1α.MMH [9]): 39600 M⁻¹ s⁻¹; t½ (mfFcεR1α.MMH [9]): 48 s; 600 nM mfFceR1a.MMH Bound (RU) (mfFcεR1α.MMH [10]): 20 RU; Kd (mfFcεR1α.MMH [10]): 1030 nM; koff (mfFcεR1α.MMH [10]): 0.0399 s⁻¹; kon (mfFcεR1α.MMH [10]): 38600 M⁻¹ s⁻¹; t½ (mfFcεR1α.MMH [10]): 17.4 s; Binding Ratio (MFI of Treated/MFI of Unstained) [11]: 277; Binding Ratio (MFI of Treated/MFI of Unstained) [12]: 236
B2	4.9e-09	6.8e-10	25	23	0.126	56.5	20	80.1	48	248	142	46	303	0.02	65900	36	19	1550	0.0991	63900	t½ (hFcεR1α.MMH [8]): 7.2 s; 600 nM mfFceR1a.MMH Bound (RU) (mfFcεR1α.MMH [9]): 26 RU; Kd (mfFcεR1α.MMH [9]): 467 nM; koff (mfFcεR1α.MMH [9]): 0.0195 s⁻¹; kon (mfFcεR1α.MMH [9]): 41700 M⁻¹ s⁻¹; t½ (mfFcεR1α.MMH [9]): 36 s; 600 nM mfFceR1a.MMH Bound (RU) (mfFcεR1α.MMH [10]): 10 RU; Kd (mfFcεR1α.MMH [10]): 3350 nM; koff (mfFcεR1α.MMH [10]): 0.0445 s⁻¹; kon (mfFcεR1α.MMH [10]): 13300 M⁻¹ s⁻¹; t½ (mfFcεR1α.MMH [10]): 15.6 s; Binding Ratio (MFI of Treated/MFI of Unstained) [11]: 201; Binding Ratio (MFI of Treated/MFI of Unstained) [12]: 169
